Reference: patent publication US20040171537A1 (HOSPITAL FOR SICK CHILDREN, published 2004)

B1: GST fusion of human MARS-v (MARS short isoform, splice variant) (other, not shown: a dimerising Fc or GST; large carriers; small tags and cut ends)
chain: MGSLPSRRKSLPSPSLSSSVQGQGPVTMEAERSKATAVALGSFPAGGPAELSLRLGEPLTIVSEDGDWWTVLSEVSGREYNIPSVHVAKVSHGWLYEGLSREKAEELLLLPGNPGGAFLIRESQTRRGSYSLSVRLSRPASWDRIRHYRIHCLDNGWLYISPRLTFPSLQALVDHYSEGWPAPWQGYTPTCDCAEDTTQLERAGQLPPVF
modifications: N-terminal GST fusion from pGEX-4T1; GST letters are not given and are left out
notes: The full-length MARS-v coding region (210 amino acids) was fused in-frame to GST; also called MARS-variant; MARS splice variant
B2: GST-MARS delta-C (deletion of the carboxy-terminal 70 amino acids) (other, not shown: a dimerising Fc or GST; large carriers; small tags and cut ends)
chain: MGSLSSRGKTSSPSPSSSGPDQEPVSMQPERHKVTAVALGSFPAGEQARLSLRLGEPLTIISEDGDWWTVQSEVSGREYHMPSVYVAKVAHGWLYEGLSREKAEELLLLPGNPGGAFLIRESQTRRGCYSLSVRLSRPASWDRIRHYRIQRLDNGWLYISPRLTFPSLHALVEHYSELADGICCPLREP
modifications: N-terminal GST fusion from pGEX-4T1; GST letters are not given and are left out
notes: Residues 1-189 are worked out from the 259-residue entry; also called MARS AC mutant; C-terminal deletion mutant of MARS

Assays:
[1] = molecular target: T1, c-Cbl (endogenous, Jurkat T-cell lysate) (human, UniProt P22681 1-906, tyrosine phosphorylated after anti-CD3 stimulation (sites not given)); experiment: GST pull-down from unstimulated or anti-CD3 stimulated Jurkat lysates, anti-c-Cbl immunoblot
T1 construct: also called 120 kDa phosphoprotein
Method: Full-length MARS and MARS-v coding regions were fused in-frame to glutathione-S-transferase, in PGEX4T1. Recombinant GST fusion proteins were expressed in bacteria and purified on glutathione sepharose (GS) (Pharmacia). Jurkat T-cells (20×10⁶) were either left unstimulated (−) or stimulated with anti-CD3 (+); (anti-human CD3ε, clone UCGT1, Pharmingen) for 2 minutes. Cells were lysed in 1% NP-40 lysis buffer containing 1 mM sodium orthovanadate and complete protease inhibitors (Roche). Cell lysates were incubated with 4 μg of GS bound GST fusion proteins for 90 minutes at 4° C. and washed 4 times for 10 minutes with 0.1% NP-40 lysis buffer. Bound proteins were eluted by boiling in 2×SDS sample buffer and were resolved by SDS-PAGE on 10% polyacrylamide gels. Proteins were subsequently transferred to PVDF membrane (NEN) and blotted with anti-phosphotyrosine antibody (clone 4G10, UBI; top panel, FIG. 13). Membranes were stripped and reprobed with anti-c-Cbl antibody (Santa Cruz; middle panel, FIG. 13), and subsequently stained with Coomassie blue dye to check for equal loading of the respective fusions (bottom panel, FIG. 13).

[2] = molecular target: T1, c-Cbl (endogenous, Jurkat T-cell lysate); experiment: GST pull-down from Jurkat T-cell lysates, anti-c-Cbl immunoblot

Binder	binding result [1]	binding result [2]
B1	no binding (tested: 4 µg of GS bound GST fusion proteins)	
B2		no binding
